{"source": "patent US20070071724", "proteins": {"B1": {"name": "Uch-L3 (Boston Biochem) (protein)", "chain": "MEGQRWLPLEANPEVTNQFLKQLGLHPNWQFVDVYGMDPELLSMVPRPVCAVLLLFPITEKYEVFRTEEEEKIKSQGQDVTSSVYFMKQTISNACGTIGLIHAIANNKDKMHFESGSTLKKFLEESVSMSPEERARYLENYDAIRVTHETSAHEGQTEAPSIDEKVDLHFIALVHVDGHLYELDGRKPFPINHGETSDETLLEDAIEVCKKFMERDPDELRFNAIALSAA"}}, "biological_target": "Nedd8-AMC (Boston Biochem), Q15843", "sequence (Q15843 whole entry, looked up)": "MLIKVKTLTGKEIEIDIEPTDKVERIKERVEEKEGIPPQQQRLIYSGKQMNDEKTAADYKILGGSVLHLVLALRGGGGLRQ", "data": [{"protein": "B1", "values": [{"measurement": "hydrolysis of Nedd8-AMC", "value": "there was no reduction in hydrolysis of Nedd8-AMC, a ubiquitin-like protein that binds to and is cleaved by Uch-L3, when 20 nM Uch-L3 was incubated with 5 µM LDN"}]}]}
